# Measurements reported in the RNAGym collection of RNA variant scans (doi:10.1093/nar/gkz1192).
# B1: CPEB3 Ribozyme (parent)
# chain: UAACAGGGGGCCACAGCAGAAGCGUUCACGUCGCAGCCCCUGUCAGAUUCUGGUGAAUCUGCGAAUUCUGCUGUAUAUCUC
# Variants of: B1
# Test: self-cleavage, relative activity (ratio to wild type); higher = more cleavage; in vitro, sequencing
# Summary of the method: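 After error-prone PCR and barcoding, CPEB3 ribozyme mutant libraries were transcribed with T7 RNA polymerase at 37°C for 5 hours, then given 15 min with DNase I before an EDTA stop, and they cleaved during both steps. Reverse transcription with template switching preceded Illumina sequencing. Relative activity divides a variant's cleaved/total read fraction by the unmutated ribozyme's. At least 5 reads were required per variant, and three batches were averaged.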
row,Variant,self-cleavage
1,UAACAGGGGGCCACAGCAGAAGCGUUCACGUCGCAGCCCCUGUCAGAUUCUGGUGCAUCUGCGAAUUCUGCUGUAUAUCCC [A56C U80C],0.93
2,UAACAGGGGGCCACAGCAGAAGCGUUCACGUCGCAGCCCCUGUCAGAUUCUGGUCAAUCUGCGAAUUCUGCUGUAUGUCUC [G55C A77G],1.04
3,UAACAGGGGGCCACAGCAGAAGCGUUCACGUCGCAGCCCCUGUCAGAUUCUGGUGCAUCCGCGAAUUCUGCUGUAUAUCUC [A56C U60C],0.18
4,UAACAGGGGGCCACAGCAGAAGCGUUCACGUCGCAGCCCCUGUCAGAUUCUGGUUAAUCUGCGAAUUCUGCUGUAUACCUC [G55U U78C],0.75
5,UAACAGGGGGCCACAGCAGAAGCGUUCACGUCGCAGCCCCUGUCAGAUUCUGGUCAAUCUGCGAAUUCUCCUGUAUAUCUC [G55C G70C],0.17
6,UAACAGGGGGCCACAGCAGAAGCGUUCACGUCGCAGCCCCUGUCAGAUUCUGGUAAAUCUGCGAAUUCUGCUGUAUAUCAC [G55A U80A],1.15
7,UAACAGGGGGCCACAGCAGAAGCGUUCACGUCGCAGCCCCUGUCAGAUUCUGGUAAAUCUGCGAAUUCUGCUGUAUAUCCC [G55A U80C],1.09
8,UAACAGGGGGCCACAGCAGAAGCGUUCACGUCGCAGCCCCUGUCAGAUUCUGGUGCACCUGCGAAUUCUGCUGUAUAUCUC [A56C U58C],0.14
9,UAACAGGGGGCCACAGCAGAAGCGUUCACGUCGCAGCCCCUGUCAGAUUCUGGUUAAUCUACGAAUUCUGCUGUAUAUCUC [G55U G61A],0.6
10,UAACAGGGGGCCACAGCAGAAGCGUUCACGUCGCAGCCCCUGUCAGAUUCUGGUUUAUCUGCGAAUUCUGCUGUAUAUCUC [G55U A56U],0.7
11,UAACAGGGGGCCACAGCAGAAGCGUUCACGUCGCAGCCCCUGUCAGAUUCUGGUGGGUCUGCGAAUUCUGCUGUAUAUCUC [A56G A57G],0.42
12,UAACAGGGGGCCACAGCAGAAGCGUUCACGUCGCAGCCCCUGUCAGAUUCUGGUGGUUCUGCGAAUUCUGCUGUAUAUCUC [A56G A57U],0.37
13,UAACAGGGGGCCACAGCAGAAGCGUUCACGUCGCAGCCCCUGUCAGAUUCUGGUGGCUCUGCGAAUUCUGCUGUAUAUCUC [A56G A57C],0.19
14,UAACAGGGGGCCACAGCAGAAGCGUUCACGUCGCAGCCCCUGUCAGAUUCUGGUGCGUCUGCGAAUUCUGCUGUAUAUCUC [A56C A57G],0.5
15,UAACAGGGGGCCACAGCAGAAGCGUUCACGUCGCAGCCCCUGUCAGAUUCUGGUCAAUCUGCGAAUUCUGCUGUAUAUCAC [G55C U80A],0.7
16,UAACAGGGGGCCACAGCAGAAGCGUUCACGUCGCAGCCCCUGUCAGAUUCUGGUAAAUCUGCGAAUUCUGCUGUAUACCUC [G55A U78C],0.75
17,UAACAGGGGGCCACAGCAGAAGCGUUCACGUCGCAGCCCCUGUCAGAUUCUGGUAAAUCUGCGAAUUCUGCUGUAUAACUC [G55A U78A],1
18,UAACAGGGGGCCACAGCAGAAGCGUUCACGUCGCAGCCCCUGUCAGAUUCUGGUCAAUCUGCGAAUUCUGCAGUAUAUCUC [G55C U72A],0.4
19,UAACAGGGGGCCACAGCAGAAGCGUUCACGUCGCAGCCCCUGUCAGAUUCUGGUUAAUCUGCGAAUUCUGCUGCAUAUCUC [G55U U74C],1.35
20,UAACAGGGGGCCACAGCAGAAGCGUUCACGUCGCAGCCCCUGUCAGAUUCUGGUGCAUCUGCGGAUUCUGCUGUAUAUCUC [A56C A64G],0.49
21,UAACAGGGGGCCACAGCAGAAGCGUUCACGUCGCAGCCCCUGUCAGAUUCUGGUGCAUCUGCGUAUUCUGCUGUAUAUCUC [A56C A64U],0.18
22,UAACAGGGGGCCACAGCAGAAGCGUUCACGUCGCAGCCCCUGUCAGAUUCUGGUAAAUCUGCGAAUUCUGCUGAAUAUCUC [G55A U74A],1.18
23,UAACAGGGGGCCACAGCAGAAGCGUUCACGUCGCAGCCCCUGUCAGAUUCUGGUCAAUCUGCGGAUUCUGCUGUAUAUCUC [G55C A64G],0.72

row,Variant,self-cleavage
1,UAACAGGGGGCCACAGCAGAAGCGUUCACGUCGCAGCCCCUGUCAGAUUCUGGUCAAUCUGCGUAUUCUGCUGUAUAUCUC [G55C A64U],0.23
2,UAACAGGGGGCCACAGCAGAAGCGUUCACGUCGCAGCCCCUGUCAGAUUCUGGUUAAUCCGCGAAUUCUGCUGUAUAUCUC [G55U U60C],0.27
3,UAACAGGGGGCCACAGCAGAAGCGUUCACGUCGCAGCCCCUGUCAGAUUCUGGUUAAUCAGCGAAUUCUGCUGUAUAUCUC [G55U U60A],0.27
4,UAACAGGGGGCCACAGCAGAAGCGUUCACGUCGCAGCCCCUGUCAGAUUCUGGUGGAUCUGCGAAUUCUGCUGUAUAUCUC [A56G],0.91
5,UAACAGGGGGCCACAGCAGAAGCGUUCACGUCGCAGCCCCUGUCAGAUUCUGGUGCAUCUGCGAAUUCUGCUGUAUAUCUC [A56C],0.63
6,UAACAGGGGGCCACAGCAGAAGCGUUCACGUCGCAGCCCCUGUCAGAUUCUGGUGCAUCUGCGAAUUCUGCUGUAUACCUC [A56C U78C],0.49
7,UAACAGGGGGCCACAGCAGAAGCGUUCACGUCGCAGCCCCUGUCAGAUUCUGGUUAAUCUGCGAAUUCUGCUGUAUAUUUC [G55U C79U],1.16
8,UAACAGGGGGCCACAGCAGAAGCGUUCACGUCGCAGCCCCUGUCAGAUUCUGGUUAAUCUGCGAGUUCUGCUGUAUAUCUC [G55U A65G],0.24
9,UAACAGGGGGCCACAGCAGAAGCGUUCACGUCGCAGCCCCUGUCAGAUUCUGGUUAAUCUGCGAUUUCUGCUGUAUAUCUC [G55U A65U],0.31
10,UAACAGGGGGCCACAGCAGAAGCGUUCACGUCGCAGCCCCUGUCAGAUUCUGGUCAAUCUGUGAAUUCUGCUGUAUAUCUC [G55C C62U],0.22
11,UAACAGGGGGCCACAGCAGAAGCGUUCACGUCGCAGCCCCUGUCAGAUUCUGGUAAAUCUGCGAAUUCGGCUGUAUAUCUC [G55A U69G],0.34
12,UAACAGGGGGCCACAGCAGAAGCGUUCACGUCGCAGCCCCUGUCAGAUUCUGGUAAAUCUGCGAAUUCCGCUGUAUAUCUC [G55A U69C],0.28
13,UAACAGGGGGCCACAGCAGAAGCGUUCACGUCGCAGCCCCUGUCAGAUUCUGGUAAAUCUGCGAAUUCAGCUGUAUAUCUC [G55A U69A],0.39
14,UAACAGGGGGCCACAGCAGAAGCGUUCACGUCGCAGCCCCUGUCAGAUUCUGGUCAAUCUGCGAAUACUGCUGUAUAUCUC [G55C U67A],0.44
15,UAACAGGGGGCCACAGCAGAAGCGUUCACGUCGCAGCCCCUGUCAGAUUCUGGUGCAUCUGCGAGUUCUGCUGUAUAUCUC [A56C A65G],0.22
16,UAACAGGGGGCCACAGCAGAAGCGUUCACGUCGCAGCCCCUGUCAGAUUCUGGUGCAUCUGCGAAUUCUGCCGUAUAUCUC [A56C U72C],0.52
17,UAACAGGGGGCCACAGCAGAAGCGUUCACGUCGCAGCCCCUGUCAGAUUCUGGUGCAUCUGCGAAUUCUGCAGUAUAUCUC [A56C U72A],0.18
18,UAACAGGGGGCCACAGCAGAAGCGUUCACGUCGCAGCCCCUGUCAGAUUCUGGUGGAUCUGCGACUUCUGCUGUAUAUCUC [A56G A65C],0.15
19,UAACAGGGGGCCACAGCAGAAGCGUUCACGUCGCAGCCCCUGUCAGAUUCUGGUGCAUCUGCGAAUUCUGCUGUAAAUCUC [A56C U76A],0.71
20,UAACAGGGGGCCACAGCAGAAGCGUUCACGUCGCAGCCCCUGUCAGAUUCUGGUUAAUCUGCGAAUUCUGCUGUAUAUCAC [G55U U80A],1.11
21,UAACAGGGGGCCACAGCAGAAGCGUUCACGUCGCAGCCCCUGUCAGAUUCUGGUUAAUCUGCGAAUUCUGCUGUAUAUCCC [G55U U80C],1.06
22,UAACAGGGGGCCACAGCAGAAGCGUUCACGUCGCAGCCCCUGUCAGAUUCUGGUUAAUCUGCGAAUUCCGCUGUAUAUCUC [G55U U69C],0.48
23,UAACAGGGGGCCACAGCAGAAGCGUUCACGUCGCAGCCCCUGUCAGAUUCUGGUUAAUCUGCGAAUUCUGCUGUAUAUCUU [G55U C81U],0.6

row,Variant,self-cleavage
1,UAACAGGGGGCCACAGCAGAAGCGUUCACGUCGCAGCCCCUGUCAGAUUCUGGUUAAUCUGCGAAUUCUGCCGUAUAUCUC [G55U U72C],0.78
2,UAACAGGGGGCCACAGCAGAAGCGUUCACGUCGCAGCCCCUGUCAGAUUCUGGUGCAUCUGCGAAUUCUGCUGUGUAUCUC [A56C A75G],0.29
3,UAACAGGGGGCCACAGCAGAAGCGUUCACGUCGCAGCCCCUGUCAGAUUCUGGUCAAUCUGCGAAUUCCGCUGUAUAUCUC [G55C U69C],0.44
4,UAACAGGGGGCCACAGCAGAAGCGUUCACGUCGCAGCCCCUGUCAGAUUCUGGUCAAUCUGCGAAUUCUGCUGUAUACCUC [G55C U78C],0.94
5,UAACAGGGGGCCACAGCAGAAGCGUUCACGUCGCAGCCCCUGUCAGAUUCUGGUCAAUCUGCGAAUUCUGCUGUAUAACUC [G55C U78A],0.97
6,UAACAGGGGGCCACAGCAGAAGCGUUCACGUCGCAGCCCCUGUCAGAUUCUGGUUAAACUGCGAAUUCUGCUGUAUAUCUC [G55U U58A],0.25
7,UAACAGGGGGCCACAGCAGAAGCGUUCACGUCGCAGCCCCUGUCAGAUUCUGGUCAAUCUGCGAAUUCUGCUGUAUAUCUC [G55C],0.94
8,UAACAGGGGGCCACAGCAGAAGCGUUCACGUCGCAGCCCCUGUCAGAUUCUGGUUAAUCUGCGAAUUCUGCUGUAUAUCUC [G55U],1.02
9,UAACAGGGGGCCACAGCAGAAGCGUUCACGUCGCAGCCCCUGUCAGAUUCUGGUCAAUCUGCGAAUUCUGCUGGAUAUCUC [G55C U74G],1.13
10,UAACAGGGGGCCACAGCAGAAGCGUUCACGUCGCAGCCCCUGUCAGAUUCUGGUUAAUCUGCGAACUCUGCUGUAUAUCUC [G55U U66C],0.49
11,UAACAGGGGGCCACAGCAGAAGCGUUCACGUCGCAGCCCCUGUCAGAUUCUGGUGCAUCUGAGAAUUCUGCUGUAUAUCUC [A56C C62A],0.24
12,UAACAGGGGGCCACAGCAGAAGCGUUCACGUCGCAGCCCCUGUCAGAUUCUGGUUAAUCUGCGAAUCCUGCUGUAUAUCUC [G55U U67C],0.21
13,UAACAGGGGGCCACAGCAGAAGCGUUCACGUCGCAGCCCCUGUCAGAUUCUGGUGCAUCUGCGAAUUCCGCUGUAUAUCUC [A56C U69C],0.12
14,UAACAGGGGGCCACAGCAGAAGCGUUCACGUCGCAGCCCCUGUCAGAUUCUGGUGCAUCUGCGAACUCUGCUGUAUAUCUC [A56C U66C],0.32
15,UAACAGGGGGCCACAGCAGAAGCGUUCACGUCGCAGCCCCUGUCAGAUUCUGGUUAAUCUGUGAAUUCUGCUGUAUAUCUC [G55U C62U],0.23
16,UAACAGGGGGCCACAGCAGAAGCGUUCACGUCGCAGCCCCUGUCAGAUUCUGGUAAAUCUGCGAAUUCUGCCGUAUAUCUC [G55A U72C],0.83
17,UAACAGGGGGCCACAGCAGAAGCGUUCACGUCGCAGCCCCUGUCAGAUUCUGGUAAAUCUGCGAAUUCUGCAGUAUAUCUC [G55A U72A],0.53
18,UAACAGGGGGCCACAGCAGAAGCGUUCACGUCGCAGCCCCUGUCAGAUUCUGGUCAGUCUGCGAAUUCUGCUGUAUAUCUC [G55C A57G],0.37
19,UAACAGGGGGCCACAGCAGAAGCGUUCACGUCGCAGCCCCUGUCAGAUUCUGGUUAAUCUGCGAAUUCUGCUGUGUAUCUC [G55U A75G],0.92
20,UAACAGGGGGCCACAGCAGAAGCGUUCACGUCGCAGCCCCUGUCAGAUUCUGGUGGAUCUGCGUAUUCUGCUGUAUAUCUC [A56G A64U],0.3
21,UAACAGGGGGCCACAGCAGAAGCGUUCACGUCGCAGCCCCUGUCAGAUUCUGGUGGAUCUGCGGAUUCUGCUGUAUAUCUC [A56G A64G],0.8
22,UAACAGGGGGCCACAGCAGAAGCGUUCACGUCGCAGCCCCUGUCAGAUUCUGGUGGAUCUGCGCAUUCUGCUGUAUAUCUC [A56G A64C],0.46
